Legend:
tyrosinase = target: T1, tyrosinase (Bacillus megaterium (printed …, UniProt B2ZB02 1-297)); test: porous silicon RIFTS (EOT) biosensor; apparent, mass-transfer limited; Hill fit R2 0.9731; Selection buffers listed (assay buffer and temperature not stated in material): AGR2 137 mM NaCl, 20 mM KCl, 10 mM Na2HPO4, 2 mM KH2PO4 pH 7.4; 6H7 50 mM K2HPO4
T1 sequence: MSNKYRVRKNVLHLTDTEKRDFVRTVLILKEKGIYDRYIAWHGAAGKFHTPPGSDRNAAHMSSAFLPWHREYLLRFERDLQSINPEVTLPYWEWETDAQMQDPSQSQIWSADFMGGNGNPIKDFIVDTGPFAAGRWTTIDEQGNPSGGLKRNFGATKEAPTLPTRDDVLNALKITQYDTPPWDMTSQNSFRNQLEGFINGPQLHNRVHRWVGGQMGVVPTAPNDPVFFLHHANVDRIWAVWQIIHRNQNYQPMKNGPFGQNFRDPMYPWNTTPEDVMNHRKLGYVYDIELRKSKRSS

AGR2 = AGR2 (UniProt O95994 21-175); test: porous silicon RIFTS (EOT) biosensor; apparent, mass-transfer limited; Hill fit R2 0.9951; Selection buffers listed (assay buffer and temperature not stated in material): AGR2 137 mM NaCl, 20 mM KCl, 10 mM Na2HPO4, 2 mM KH2PO4 pH 7.4; 6H7 50 mM K2HPO4
Sequence of AGR2 (O95994 21-175): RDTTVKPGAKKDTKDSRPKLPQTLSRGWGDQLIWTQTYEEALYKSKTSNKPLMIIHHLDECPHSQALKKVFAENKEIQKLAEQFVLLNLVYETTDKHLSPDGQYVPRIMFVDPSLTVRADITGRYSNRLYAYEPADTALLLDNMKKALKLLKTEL

protein A = protein A (Staphylococcus aureus, UniProt P02976 37-485); test: porous silicon RIFTS (EOT) biosensor; apparent, mass-transfer limited; Hill fit R2 0.9177; Selection buffers listed (assay buffer and temperature not stated in material): AGR2 137 mM NaCl, 20 mM KCl, 10 mM Na2HPO4, 2 mM KH2PO4 pH 7.4; 6H7 50 mM K2HPO4
Sequence of protein A (P02976 37-485): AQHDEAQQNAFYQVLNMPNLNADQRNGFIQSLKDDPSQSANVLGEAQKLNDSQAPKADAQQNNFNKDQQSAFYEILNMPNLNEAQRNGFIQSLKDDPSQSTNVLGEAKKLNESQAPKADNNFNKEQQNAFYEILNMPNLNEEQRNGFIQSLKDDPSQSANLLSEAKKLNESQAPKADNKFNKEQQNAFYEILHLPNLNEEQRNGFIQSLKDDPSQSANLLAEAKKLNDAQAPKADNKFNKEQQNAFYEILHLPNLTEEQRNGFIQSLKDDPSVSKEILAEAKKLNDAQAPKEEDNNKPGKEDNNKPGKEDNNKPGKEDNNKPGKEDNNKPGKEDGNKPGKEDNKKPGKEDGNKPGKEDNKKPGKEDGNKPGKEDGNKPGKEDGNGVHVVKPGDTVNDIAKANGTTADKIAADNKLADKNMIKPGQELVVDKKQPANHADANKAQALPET

GCTATGGGTGGTCTGGTTGGGATTGGCCCCGGGAGCTGGC (ssDNA, 5'-amino) [anti-his tag aptamer 6H7]
Kd (tyrosinase): 31 ± 7 µM

TCTCGGACGCGTGTGGTCGGGTGGGAGTTGTGGGGGGGGGTGGGAGGGTT (ssDNA, 5'-amino) [anti-AGR2 aptamer]
Kd (AGR2): 21 ± 1 µM

B1: anti-protein A aptamer PA#2/8[S1-58] (ssDNA)
DNA: ATACCAGCTTATTCAATTAGCAACATGAGGGGGATAGAGGGGGTGGGTTCTCTCGGCT
modifications: 3'-amino-C6
Kd (protein A): 14 ± 1 µM

Reference: paper PMC7589614
